Test results as given in patent US20150217006A1, “AL-F-18-LABELED, AL-F-19-LABELED AND GA-68-LABELED GASTRIN-RELEASING PEPTIDE RECEPTOR (GRPR)-ANTAGONISTS FOR IMAGING OF PROSTATE CANCER” (Immunomedics, Inc., priority 2014, published 2015).

Biological target: gastrin-releasing peptide receptor (GRPR) (human) (UniProt P30550)
Test: competition with 125I-BBN on PC-3 cells, repeat experiment, inhibitor 250 to 2 nM

Chain of gastrin-releasing peptide receptor (GRPR) (human) (P30550 whole entry): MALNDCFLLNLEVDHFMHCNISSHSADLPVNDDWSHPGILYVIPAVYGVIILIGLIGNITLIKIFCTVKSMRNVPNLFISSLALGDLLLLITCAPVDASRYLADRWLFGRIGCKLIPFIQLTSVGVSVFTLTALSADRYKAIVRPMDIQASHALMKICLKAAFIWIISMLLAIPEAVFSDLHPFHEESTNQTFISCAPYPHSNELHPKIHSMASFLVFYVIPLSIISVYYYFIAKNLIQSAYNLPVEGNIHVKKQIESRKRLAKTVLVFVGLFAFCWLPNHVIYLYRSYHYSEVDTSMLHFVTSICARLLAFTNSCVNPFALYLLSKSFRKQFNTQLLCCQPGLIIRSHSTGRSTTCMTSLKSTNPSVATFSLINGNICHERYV

- IC50: 24.4 nM
Substance: commercially available BBN peptide
